B1: RNF115 peptide 67-82 (E3 ubiquitin-protein ligase RNF115), 16-mer library wild type / MDM2 SWIB (MDM2 SWIB/MDM2 domain, residues 17-125) (parent complex)
chain 1: TTTHFAELWGHLDHTM
chain 2: SQIPASEQETLVRPKPLLLKLLKSVGAQKDTYTMKEVLFYLGQYIMTKRLYDEKQQHIVYCSNDLLGDLFGVPSFSVKEHRKIYTMIYRNLVVVNQQESSDSGTSVSEN

Variants of: B1
Test: proteomic peptide phage display deep mutational scan (ProP-PD DMS): M13 P8 16-mer library selected against immobilised GST-tagged bait for four days (rounds), NGS of the eluted pools per day and pseudo-replica; bait immobilised on MaxiSorp plates (10 µg), library pre-cleared on GST, 2 h binding at 4 °C, five washes; one round per day, days 1-4; value from days 2 and 3
With chain 1 T3W the screen value was 0.00105 average fractional NGS count over selection days 2 and 3 (reads of this peptide / all reads for the bait, averaged over ….
With chain 1 L8M the screen value was 0.000104 average fractional NGS count over selection days 2 and 3 (reads of this peptide / all reads for the bait, averaged over ….
For chain 1 H4Y, the screen value was 0.000766 average fractional NGS count over selection days 2 and 3 (reads of this peptide / all reads for the bait, averaged over ….
chain 1 H14M was tested, and the screen value was 0.00126 average fractional NGS count over selection days 2 and 3 (reads of this peptide / all reads for the bait, averaged over ….
In the case of chain 1 D13H, the screen value is reported as 0.000247 average fractional NGS count over selection days 2 and 3 (reads of this peptide / all reads for the bait, averaged over ….
In the case of chain 1 G10T, the screen value is reported as 0.000148 average fractional NGS count over selection days 2 and 3 (reads of this peptide / all reads for the bait, averaged over ….
In the case of chain 1 H14L, the screen value is reported as 0.00317 average fractional NGS count over selection days 2 and 3 (reads of this peptide / all reads for the bait, averaged over ….
With chain 1 T3G the screen value was 0.000204 average fractional NGS count over selection days 2 and 3 (reads of this peptide / all reads for the bait, averaged over ….
With chain 1 G10Y the screen value was 0.000227 average fractional NGS count over selection days 2 and 3 (reads of this peptide / all reads for the bait, averaged over ….
With chain 1 T15A the screen value was 0.000886 average fractional NGS count over selection days 2 and 3 (reads of this peptide / all reads for the bait, averaged over ….
In the case of chain 1 H11R, the screen value is reported as 0.000902 average fractional NGS count over selection days 2 and 3 (reads of this peptide / all reads for the bait, averaged over ….
In the case of chain 1 H11L, the screen value is reported as 0.00334 average fractional NGS count over selection days 2 and 3 (reads of this peptide / all reads for the bait, averaged over ….
With chain 1 H4P the screen value was 0.000821 average fractional NGS count over selection days 2 and 3 (reads of this peptide / all reads for the bait, averaged over ….
With chain 1 T2S the screen value was 0.000484 average fractional NGS count over selection days 2 and 3 (reads of this peptide / all reads for the bait, averaged over ….
For chain 1 M16E, the screen value was 0.000437 average fractional NGS count over selection days 2 and 3 (reads of this peptide / all reads for the bait, averaged over ….
chain 1 H4M was tested, and the screen value was 0.000847 average fractional NGS count over selection days 2 and 3 (reads of this peptide / all reads for the bait, averaged over ….
In the case of chain 1 F5T, the screen value is reported as 7.7e-05 average fractional NGS count over selection days 2 and 3 (reads of this peptide / all reads for the bait, averaged over ….
For chain 1 H4N, the screen value was 0.000308 average fractional NGS count over selection days 2 and 3 (reads of this peptide / all reads for the bait, averaged over ….
For chain 1 H4T, the screen value was 0.002 average fractional NGS count over selection days 2 and 3 (reads of this peptide / all reads for the bait, averaged over ….
For chain 1 T2Y, the screen value was 0.000215 average fractional NGS count over selection days 2 and 3 (reads of this peptide / all reads for the bait, averaged over ….
chain 1 M16I was tested, and the screen value was 0.000492 average fractional NGS count over selection days 2 and 3 (reads of this peptide / all reads for the bait, averaged over ….
In the case of chain 1 H11Y, the screen value is reported as 0.00946 average fractional NGS count over selection days 2 and 3 (reads of this peptide / all reads for the bait, averaged over ….
In the case of chain 1 H11W, the screen value is reported as 0.00259 average fractional NGS count over selection days 2 and 3 (reads of this peptide / all reads for the bait, averaged over ….
For chain 1 M16Y, the screen value was 0.000534 average fractional NGS count over selection days 2 and 3 (reads of this peptide / all reads for the bait, averaged over ….
chain 1 G10Q was tested, and the screen value was 0.000894 average fractional NGS count over selection days 2 and 3 (reads of this peptide / all reads for the bait, averaged over ….
chain 1 L8I was tested, and the screen value was 7.89e-05 average fractional NGS count over selection days 2 and 3 (reads of this peptide / all reads for the bait, averaged over ….
With chain 1 T15F the screen value was 0.00191 average fractional NGS count over selection days 2 and 3 (reads of this peptide / all reads for the bait, averaged over ….
With chain 1 L8W the screen value was 0.00339 average fractional NGS count over selection days 2 and 3 (reads of this peptide / all reads for the bait, averaged over ….
chain 1 H4E was tested, and the screen value was 0.000591 average fractional NGS count over selection days 2 and 3 (reads of this peptide / all reads for the bait, averaged over ….
In the case of chain 1 T2E, the screen value is reported as 0.0056 average fractional NGS count over selection days 2 and 3 (reads of this peptide / all reads for the bait, averaged over ….
For chain 1 T15V, the screen value was 0.00407 average fractional NGS count over selection days 2 and 3 (reads of this peptide / all reads for the bait, averaged over ….
In the case of chain 1 H14I, the screen value is reported as 0.00129 average fractional NGS count over selection days 2 and 3 (reads of this peptide / all reads for the bait, averaged over ….
With chain 1 A6E the screen value was 0.000746 average fractional NGS count over selection days 2 and 3 (reads of this peptide / all reads for the bait, averaged over ….
For chain 1 D13L, the screen value was 0.00105 average fractional NGS count over selection days 2 and 3 (reads of this peptide / all reads for the bait, averaged over ….
chain 1 A6L was tested, and the screen value was 0.00496 average fractional NGS count over selection days 2 and 3 (reads of this peptide / all reads for the bait, averaged over ….
With chain 1 H14G the screen value was 0.00396 average fractional NGS count over selection days 2 and 3 (reads of this peptide / all reads for the bait, averaged over ….
With chain 1 T15D the screen value was 0.000245 average fractional NGS count over selection days 2 and 3 (reads of this peptide / all reads for the bait, averaged over ….
With chain 1 G10I the screen value was 7.33e-05 average fractional NGS count over selection days 2 and 3 (reads of this peptide / all reads for the bait, averaged over ….
chain 1 T2H was tested, and the screen value was 0.000527 average fractional NGS count over selection days 2 and 3 (reads of this peptide / all reads for the bait, averaged over ….
For chain 1 L12A, the screen value was 0.000185 average fractional NGS count over selection days 2 and 3 (reads of this peptide / all reads for the bait, averaged over ….
In the case of chain 1 T2G, the screen value is reported as 0.00135 average fractional NGS count over selection days 2 and 3 (reads of this peptide / all reads for the bait, averaged over ….
With chain 1 H11A the screen value was 0.0021 average fractional NGS count over selection days 2 and 3 (reads of this peptide / all reads for the bait, averaged over ….
chain 1 H4S was tested, and the screen value was 0.0034 average fractional NGS count over selection days 2 and 3 (reads of this peptide / all reads for the bait, averaged over ….
With chain 1 T2A the screen value was 0.00136 average fractional NGS count over selection days 2 and 3 (reads of this peptide / all reads for the bait, averaged over ….
chain 1 T3E was tested, and the screen value was 0.00168 average fractional NGS count over selection days 2 and 3 (reads of this peptide / all reads for the bait, averaged over ….
chain 1 H14F was tested, and the screen value was 0.00117 average fractional NGS count over selection days 2 and 3 (reads of this peptide / all reads for the bait, averaged over ….
In the case of chain 1 T2V, the screen value is reported as 0.000589 average fractional NGS count over selection days 2 and 3 (reads of this peptide / all reads for the bait, averaged over ….
For chain 1 T2Q, the screen value was 0.00139 average fractional NGS count over selection days 2 and 3 (reads of this peptide / all reads for the bait, averaged over ….
In the case of chain 1 H14Q, the screen value is reported as 0.000199 average fractional NGS count over selection days 2 and 3 (reads of this peptide / all reads for the bait, averaged over ….
For chain 1 H14P, the screen value was 0.000471 average fractional NGS count over selection days 2 and 3 (reads of this peptide / all reads for the bait, averaged over ….
chain 1 A6I was tested, and the screen value was 0.000155 average fractional NGS count over selection days 2 and 3 (reads of this peptide / all reads for the bait, averaged over ….
chain 1 G10W was tested, and the screen value was 0.000571 average fractional NGS count over selection days 2 and 3 (reads of this peptide / all reads for the bait, averaged over ….
With chain 1 M16Q the screen value was 0.000223 average fractional NGS count over selection days 2 and 3 (reads of this peptide / all reads for the bait, averaged over ….
For chain 1 H14W, the screen value was 0.00227 average fractional NGS count over selection days 2 and 3 (reads of this peptide / all reads for the bait, averaged over ….
For chain 1 D13Y, the screen value was 0.00726 average fractional NGS count over selection days 2 and 3 (reads of this peptide / all reads for the bait, averaged over ….
In the case of chain 1 L12N, the screen value is reported as 0.000651 average fractional NGS count over selection days 2 and 3 (reads of this peptide / all reads for the bait, averaged over ….
In the case of chain 1 H11I, the screen value is reported as 0.000552 average fractional NGS count over selection days 2 and 3 (reads of this peptide / all reads for the bait, averaged over ….
In the case of chain 1 H11E, the screen value is reported as 0.000714 average fractional NGS count over selection days 2 and 3 (reads of this peptide / all reads for the bait, averaged over ….
For chain 1 M16F, the screen value was 0.000243 average fractional NGS count over selection days 2 and 3 (reads of this peptide / all reads for the bait, averaged over ….
chain 1 H4V was tested, and the screen value was 0.000238 average fractional NGS count over selection days 2 and 3 (reads of this peptide / all reads for the bait, averaged over ….
In the case of chain 1 T15S, the screen value is reported as 0.000189 average fractional NGS count over selection days 2 and 3 (reads of this peptide / all reads for the bait, averaged over ….
chain 1 T3P was tested, and the screen value was 0.000694 average fractional NGS count over selection days 2 and 3 (reads of this peptide / all reads for the bait, averaged over ….
For chain 1 D13E, the screen value was 0.000754 average fractional NGS count over selection days 2 and 3 (reads of this peptide / all reads for the bait, averaged over ….
chain 1 T3M was tested, and the screen value was 0.000962 average fractional NGS count over selection days 2 and 3 (reads of this peptide / all reads for the bait, averaged over ….
In the case of chain 1 D13I, the screen value is reported as 0.00102 average fractional NGS count over selection days 2 and 3 (reads of this peptide / all reads for the bait, averaged over ….
chain 1 H14N was tested, and the screen value was 0.00027 average fractional NGS count over selection days 2 and 3 (reads of this peptide / all reads for the bait, averaged over ….
In the case of chain 1 M16P, the screen value is reported as 0.000227 average fractional NGS count over selection days 2 and 3 (reads of this peptide / all reads for the bait, averaged over ….
With chain 1 H4K the screen value was 0.000298 average fractional NGS count over selection days 2 and 3 (reads of this peptide / all reads for the bait, averaged over ….
chain 1 G10S was tested, and the screen value was 0.00615 average fractional NGS count over selection days 2 and 3 (reads of this peptide / all reads for the bait, averaged over ….
For chain 1 M16V, the screen value was 0.00172 average fractional NGS count over selection days 2 and 3 (reads of this peptide / all reads for the bait, averaged over ….
chain 1 M16L was tested, and the screen value was 0.0016 average fractional NGS count over selection days 2 and 3 (reads of this peptide / all reads for the bait, averaged over ….
In the case of chain 1 H4Q, the screen value is reported as 0.00071 average fractional NGS count over selection days 2 and 3 (reads of this peptide / all reads for the bait, averaged over ….
chain 1 T3F was tested, and the screen value was 0.000452 average fractional NGS count over selection days 2 and 3 (reads of this peptide / all reads for the bait, averaged over ….
In the case of chain 1 T15Q, the screen value is reported as 0.000103 average fractional NGS count over selection days 2 and 3 (reads of this peptide / all reads for the bait, averaged over ….
With chain 1 T2P the screen value was 0.000494 average fractional NGS count over selection days 2 and 3 (reads of this peptide / all reads for the bait, averaged over ….

From publication PMC12102759 (2025)
